# Results as given in publication PMC6158738.
# T1: PfuHAN-D3 (Pyrococcus furiosus, UniProt Q8U3Q7 201-740)
# T1 sequence: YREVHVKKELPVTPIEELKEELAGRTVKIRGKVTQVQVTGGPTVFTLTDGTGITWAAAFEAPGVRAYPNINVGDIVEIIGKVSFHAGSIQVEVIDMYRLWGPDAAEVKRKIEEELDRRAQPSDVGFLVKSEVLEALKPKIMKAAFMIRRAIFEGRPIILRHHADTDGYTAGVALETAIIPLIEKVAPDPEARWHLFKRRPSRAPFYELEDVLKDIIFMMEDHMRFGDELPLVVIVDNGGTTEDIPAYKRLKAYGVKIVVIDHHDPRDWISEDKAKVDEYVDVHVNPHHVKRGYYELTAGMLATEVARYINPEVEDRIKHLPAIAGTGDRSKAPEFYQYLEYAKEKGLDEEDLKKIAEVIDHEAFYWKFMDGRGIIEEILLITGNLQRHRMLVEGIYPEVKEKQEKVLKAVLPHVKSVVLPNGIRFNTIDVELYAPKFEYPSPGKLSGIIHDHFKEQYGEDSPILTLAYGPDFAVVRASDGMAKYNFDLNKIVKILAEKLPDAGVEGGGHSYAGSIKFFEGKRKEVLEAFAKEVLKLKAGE
# T2: PfuHAN-D5 (Pyrococcus furiosus, UniProt Q8U3Q7 50-740)
# T2 sequence: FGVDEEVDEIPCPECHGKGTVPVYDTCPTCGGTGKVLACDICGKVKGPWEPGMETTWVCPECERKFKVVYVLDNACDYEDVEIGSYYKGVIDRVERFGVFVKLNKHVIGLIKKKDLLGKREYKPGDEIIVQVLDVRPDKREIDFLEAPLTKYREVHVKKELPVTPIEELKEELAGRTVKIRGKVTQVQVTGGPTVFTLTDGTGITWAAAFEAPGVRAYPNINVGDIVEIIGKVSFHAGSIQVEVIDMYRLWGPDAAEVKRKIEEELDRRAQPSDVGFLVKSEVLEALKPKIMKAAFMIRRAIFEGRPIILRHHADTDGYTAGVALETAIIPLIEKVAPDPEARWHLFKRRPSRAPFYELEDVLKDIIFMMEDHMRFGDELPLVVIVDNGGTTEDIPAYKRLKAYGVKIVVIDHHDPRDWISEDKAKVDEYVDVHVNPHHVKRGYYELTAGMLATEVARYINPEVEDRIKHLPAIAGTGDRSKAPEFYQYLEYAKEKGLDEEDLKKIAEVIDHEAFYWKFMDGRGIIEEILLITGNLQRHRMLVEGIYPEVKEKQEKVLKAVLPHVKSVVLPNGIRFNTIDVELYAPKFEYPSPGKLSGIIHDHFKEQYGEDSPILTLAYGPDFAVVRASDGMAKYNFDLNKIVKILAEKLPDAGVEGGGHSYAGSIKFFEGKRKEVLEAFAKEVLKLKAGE
# T3: PfuHAN-D4 (Pyrococcus furiosus, UniProt Q8U3Q7 112-740)
# T3 sequence: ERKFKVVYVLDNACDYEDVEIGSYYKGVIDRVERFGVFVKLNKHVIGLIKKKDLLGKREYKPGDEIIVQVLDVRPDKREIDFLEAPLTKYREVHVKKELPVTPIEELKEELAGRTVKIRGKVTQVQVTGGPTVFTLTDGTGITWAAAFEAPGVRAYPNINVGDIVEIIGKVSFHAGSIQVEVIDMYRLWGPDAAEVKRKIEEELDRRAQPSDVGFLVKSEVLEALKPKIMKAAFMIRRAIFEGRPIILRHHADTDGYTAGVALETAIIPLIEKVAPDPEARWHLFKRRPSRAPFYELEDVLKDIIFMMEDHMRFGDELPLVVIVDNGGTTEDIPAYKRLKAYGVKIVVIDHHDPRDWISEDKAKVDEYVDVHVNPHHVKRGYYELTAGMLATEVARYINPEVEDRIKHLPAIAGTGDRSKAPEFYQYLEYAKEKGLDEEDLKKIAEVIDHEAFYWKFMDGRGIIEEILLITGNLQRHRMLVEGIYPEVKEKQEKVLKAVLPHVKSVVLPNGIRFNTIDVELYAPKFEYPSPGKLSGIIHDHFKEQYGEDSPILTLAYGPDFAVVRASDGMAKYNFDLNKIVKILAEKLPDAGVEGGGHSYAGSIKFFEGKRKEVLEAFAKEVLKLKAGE
# T4: PfuHAN-D1 (Pyrococcus furiosus, UniProt Q8U3Q7 305-740)
# T4 sequence: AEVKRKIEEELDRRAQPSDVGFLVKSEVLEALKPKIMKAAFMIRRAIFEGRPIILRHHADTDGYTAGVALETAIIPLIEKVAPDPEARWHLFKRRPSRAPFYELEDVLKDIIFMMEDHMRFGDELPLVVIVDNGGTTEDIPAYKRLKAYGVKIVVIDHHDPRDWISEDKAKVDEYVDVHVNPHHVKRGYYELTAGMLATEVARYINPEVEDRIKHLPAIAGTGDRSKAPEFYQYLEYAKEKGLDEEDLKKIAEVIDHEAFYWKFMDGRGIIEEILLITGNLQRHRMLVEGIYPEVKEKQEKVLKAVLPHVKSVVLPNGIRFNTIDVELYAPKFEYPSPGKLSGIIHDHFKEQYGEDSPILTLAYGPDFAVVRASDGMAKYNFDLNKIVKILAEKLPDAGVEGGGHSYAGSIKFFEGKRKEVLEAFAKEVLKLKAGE
# T5: PfuHAN-D2 (Pyrococcus furiosus, UniProt Q8U3Q7 227-740)
# T5 sequence: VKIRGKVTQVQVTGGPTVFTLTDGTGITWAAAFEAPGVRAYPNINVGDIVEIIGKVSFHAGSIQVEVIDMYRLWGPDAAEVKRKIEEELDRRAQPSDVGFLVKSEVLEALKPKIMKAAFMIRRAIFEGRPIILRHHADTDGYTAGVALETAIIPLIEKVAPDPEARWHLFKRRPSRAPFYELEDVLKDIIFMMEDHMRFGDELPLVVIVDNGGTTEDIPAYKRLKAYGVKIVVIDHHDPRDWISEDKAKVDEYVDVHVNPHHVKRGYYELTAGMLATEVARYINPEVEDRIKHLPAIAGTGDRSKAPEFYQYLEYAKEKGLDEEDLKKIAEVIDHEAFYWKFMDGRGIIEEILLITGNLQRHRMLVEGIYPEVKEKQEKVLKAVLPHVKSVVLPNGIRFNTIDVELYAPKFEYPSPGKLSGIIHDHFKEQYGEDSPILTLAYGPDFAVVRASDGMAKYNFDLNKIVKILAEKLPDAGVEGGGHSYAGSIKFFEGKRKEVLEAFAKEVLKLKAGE
# T6: PfuHAN wt (Pyrococcus furiosus, UniProt Q8U3Q7 1-740)
# T6 sequence: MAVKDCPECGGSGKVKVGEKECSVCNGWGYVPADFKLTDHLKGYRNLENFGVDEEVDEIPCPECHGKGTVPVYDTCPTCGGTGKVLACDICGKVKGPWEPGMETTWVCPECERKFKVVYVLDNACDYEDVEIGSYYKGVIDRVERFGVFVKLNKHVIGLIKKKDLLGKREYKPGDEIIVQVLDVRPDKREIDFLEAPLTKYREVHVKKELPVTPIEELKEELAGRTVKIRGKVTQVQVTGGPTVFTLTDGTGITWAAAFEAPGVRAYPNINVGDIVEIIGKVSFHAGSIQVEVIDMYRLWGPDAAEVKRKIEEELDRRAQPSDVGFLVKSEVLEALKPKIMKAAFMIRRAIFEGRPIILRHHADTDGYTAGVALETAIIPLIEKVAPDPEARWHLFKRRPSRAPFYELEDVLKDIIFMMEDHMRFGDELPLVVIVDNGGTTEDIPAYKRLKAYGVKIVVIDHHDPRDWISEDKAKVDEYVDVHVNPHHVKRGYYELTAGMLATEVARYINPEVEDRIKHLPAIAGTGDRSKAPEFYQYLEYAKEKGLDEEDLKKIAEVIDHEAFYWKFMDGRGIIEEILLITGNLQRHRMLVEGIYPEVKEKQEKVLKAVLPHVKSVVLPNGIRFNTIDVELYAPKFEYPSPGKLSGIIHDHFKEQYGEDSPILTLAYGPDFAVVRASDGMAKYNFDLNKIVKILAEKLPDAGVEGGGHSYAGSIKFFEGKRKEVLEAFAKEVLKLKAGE
# Legend:
# [1] = biological target: PfuHAN_DND E562A (Pyrococcus furiosus); experiment: SEC
# PfuHAN-D3 = biological target: T1, PfuHAN-D3; experiment: EMSA
# PfuHAN-D5 = biological target: T2, PfuHAN-D5; experiment: EMSA
# PfuHAN-D4 = biological target: T3, PfuHAN-D4; experiment: EMSA
# PfuHAN-D1 = biological target: T4, PfuHAN-D1; experiment: EMSA
# PfuHAN-D2 = biological target: T5, PfuHAN-D2; experiment: EMSA
# PfuHAN wt = biological target: T6, PfuHAN wt; experiment: MST
Molecule,stoichiometry N [1],binding result (PfuHAN-D3),binding result (PfuHAN-D5),binding result (PfuHAN-D4),binding result (PfuHAN-D1),binding result (PfuHAN-D2),binding result (PfuHAN wt)
PfuHAN_DND E562A (domain or fragment),3,,,,,,
AGGCTGCGGTCGAGTTGACAGCACTGCACGCATTACTGAGCT (ssDNA) [42-nt ssDNA],,no binding,no binding,no binding,no binding,no binding,no binding
